Data published in the nanobody polyreactivity screen of Harvey et al. (2022).

Assay: yeast display, Sf9 membrane polyspecificity reagent, FACS + sequencing; frameworks hold sequencing errors
Summary of the method: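 In a synthetic yeast display library (Saccharomyces cerevisiae BJ5465), nanobody expression was induced with galactose for 36–48 hours. FACS gates were set low and high (top ~1%) using anti-HA fluorescence for expression and streptavidin fluorescence for binding of the Sf9 membrane reagent. Each polyreactivity label is drawn from the gate of origin.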

Sequence	polyreactivity (PSR sort gate)
QVQLVESGGGLVQAGGSLRLSCAASAYILFKYAKGSYRQAPGKERELVAGITRGGTTYYADSVKGRFTISRDNAKNTVYLQMNSLKPEDTAVYYCAVAITFSSYKFYYWGQGTQVTVSS	high polyreactivity
QVQLVESGGGLVQAGGSLRLSCAASGSTFCSYVMGWYRQAPGKERELVAAISSIGGSTYYADSVKGRFTISRDNAKNTVYLQMNSLKPEDTAVYYCAAEPPGSPYEGGYWGQGTQVTVSS	low polyreactivity
QVQLVESGGGLVQAGGSLRLSCAASGGIFYPYAMGGYRQAPGKERELVASIDVSDGSTYYADSVKGRFTISRDNAKNTVYLQMNSLKPEDTAVYYCAADRYYKAIDFEGDYWGQGTQVTVSS	low polyreactivity
QVQLVESGGGLVQAGGSLRLSCAASGNTFVRNAMGWYRQAPGKERELVAAMSSRGTSTYYADSVKGRFTISRDNAKNTVYLQMNSLKPEDTAVYYCAAYQYPADFKLYYYWGQGTQVTVSS	high polyreactivity
QVQLVESGGGLVQAGGSLRLSCAASGFIFYTYAIGWYRQAHGKERELVAAISRGGRTNYADSVKGRFTISRDNAKNSVYLQMNSLKPEDPAVYYCPSSYSHRYDYWGQGTQVTVSS	high polyreactivity
QVQLLESGGGLVQAGGSLRLSCAASGFTFLQYAMGWYRQAPGKERELVAAISWSGSRTYYADSVKGRFTISRDNAKNTVYLQMNSLKPEETAVYYCAAVYGGLTLTRNYYWGQGTQVTVSS	high polyreactivity
QVQLVESGGGLVQAGGSLRLSCAASGSTFRTYSMGWYRQAPGKEREWVASITSSGASTYYADSVKGRFTISRDNAKNTVYLQMNSLKPEDTAVYYCAKGYPWYYRYKYDSWGQGTQVTVSS	high polyreactivity
QVQLVESGGGLVQAGGSLRLSCAASGFIFPYNAMGWYRQAPGKERELVAGITSSGGGTYYADSVKGRFTISRDNAKNTVYLQMNSLKPEDTAVYYCNKVWSYHLYPYDYWGQGTQVTVSS	high polyreactivity
QVQLVESGGGLVQAGGSLRLSCAASGSIYYYYAMGWYRQAPGKERELVAAIRRRGGTTYYADSVKGRFTISRDNAKNTVSLQMISLKPEDTAVYYCAARSKSAYWGQGTQVTVSS	high polyreactivity
QVQLVESGGGLVQAGGSLRLSCAASGSIFSFYAMGWYRQAPGKRELVAAISGNGGSTFYADSVKGRFTISRDNAKNTVYLQMNSLKPEDTAVYYCAAYSYRYKYYYWGQGTQVTVSS	high polyreactivity
QVQLVESGGGLVQAGGSLRLSCAASGSTFTQYVMGWYRQAPGKERELVAAISDSGSTYYADSVKGRFTISRDNAKNTVYLQMNSLKPEDTAVYYCNADDVEFYYGYGYLDYDYWGQGTQVTVSS	low polyreactivity
QLQLVESGGGLVQAGGSLRLSCAASGSTFPEYVMGWYRQAPAKERELVAAITRRGGRTYYADSVKGRFTISRDNAKNTVYFQMNSLKPEDTAVYYCAAKSAVVVGMDSWGQGTQVTVSS	high polyreactivity
QVQLVESGGGLVQAGGSLRLRCAASGSIFWYYTMGWYRQAPGIERELVATLTRSGSRTYDADSVKGRCTISRDNAKNTVYLQMNSLKPEDTAVYYCAKDYGPWTYDYWGQGTQVTVSS	low polyreactivity
QVQLVESGGGLVQAGGSLRLSCAASGSTFDTYAKGWYRQAPGQERELVAAISYRGGNTYYADSVKGRFTISRDNAKNTVYLQMNSLKPEDTAVYYCNAGVSIGRSRRYDYWGQGTHVTVSS	low polyreactivity
QVQLVESGGGLVQAGGSLRLSCAASGRTFGWYAMGWYRQAPGKERELVAAITSGTSTYYADSVKGRFTISRDNAKNTVYLQMYSLKPEDTAVYYCAVDRGISVGYTRFDYWGQGTEVTVSS	low polyreactivity
QVQLVESGGGLVQAGGSLRLSCAASGSTFVRNAMGWYRQAPGKERELVAAISRSGGRTYYADSVKGRFTISRDNAKNTVYLQMNSLKPEDNAVYYCNAVLGYYSYDYWGQGTQVTVSS	high polyreactivity

Sequence	polyreactivity (PSR sort gate)
QVQLVESGGGLVQAGGSLRLSCAASGFTFTRNAMGWYRQAPGKERELVAAITSSGGRTYYADSVKGRFTISRDNAKNTVYLQMNSLKPEDTAVYYCAVYPRYSLPARDYDYWGQGTQVTVSS	high polyreactivity
QVQLVESGGGLVQAGGSLRLSCAASGSTFQYYAMGWYRQAPGKERELVATISTSGGRTYYADSVKGRFTISRDNAKNTVYLQMNSLKPEDTAVYYCAKRRYSTYYWTFDYWGQGTQVTVSS	high polyreactivity
QVQLVESGGGLVQAGGSLRLSCAASGSTYYYYAMGSYRPAPGKERELVAAINTSGGITYYADSVKGRFTISRDNAKNTVYLQMNSLKPEDTAVYYCAARNRSYCGTFGSYNYDYWGQGTQVTVSS	high polyreactivity
QVQLVESGGGLVQAGGSLRLSCAASGFTFTYNDMGWYIQAPGKEREFVAAISSTGGSTYYADSVKGRFTISRDNAKNTVYLQMNSLKAEDTAVYYCAAEDSWYWDAWFDYWGQGTQVTVSS	low polyreactivity
QVQLVESGGGLVQAGGSLRLSCAASGSIFDYYAMGWYRQAPGKERELVAAISNGRTTNYADSVKGRFTISRDNAKNTVYLQMNSLKPEDTAVYYCNADSALYDKAVIYSEYDYWGQGTQVTVSS	low polyreactivity
QVQLVESGGGLVQAGGSLRLSCAASGFIFRYYAMGWYRQAPGKERELVAAISGSGGSTYYADSVKGRFTISRDNAKNTVYLQMNSLKPEDTAVYYCAAYYYGYEYWGQGTQVTVSS	high polyreactivity
QFQLVESGGGLDQARGSLRLTCAASGSIFARNAMGWYRQAPGKERELVAAITYSGGNTYYADSVKGRFTISRDNAKNTVYLQMNSLKPEDTAVYYCNKDWYPTYAAYNYYYWGQGTQVTVSS	high polyreactivity
QVQLVESGGGLVQAGGSLRLSCAASGSIFTGYSMGWYRQAPGKERELVAAISNSGTSTYYADSVKGRFTISRDNAKNTVYLQMNCLKPDDTAVYYCNRYHRLRVVPSRYVKYDYWGQGTQVTVSS	low polyreactivity
QVQLVESGGGLVQAGGSLRLSCAASGSTIGYYAMGWYRPAPGKERELVAAISWSGGSTYYADSVKGRFTISRDTAKNTVYFQMNSLKPEDTAGYYCAADTYPDYYLVEYYYWGQGTQVTVSS	low polyreactivity
QVQLVESGGGLVQAGGSLRLSCAASGRTLYYYGMGWYRQAPGKERELVASITNGGNTNYADSVKGRFTISRDNAKNTVYLQMNSLKPEDTAVYYCAKDVPYWRPVVRYDYWGQGTQVTVSS	low polyreactivity
QVQLVESGGGSVQAGGSLRLSCAASGITSYGYAMGWYRQAPGKERDLVASISRTGGNTYADSVKGRFTISRDNAKNTVYLQMNSLKPEDTAVYYCNAGRSWDYWYGYDYWGQGTQVTVSS	low polyreactivity
QVQLVESGGGLFQAGGSHRLSCAASGSTFTPYAMGWYRQAPGKEREFVARISWTGGSTYYADSVKGRFTISRDNAKNTVYLQMNSLKPEDTAVYYCAARYGYSYYRRDYWGQGTQVTVSS	high polyreactivity
QVQLLESGGGLVQAGGSLRLSCAASGRTFEYYAMGWYRQAPGKERELDAAITSGGITYYADSVKGRFTISRDNAKITVYLQMNSLKPEDSAVYYCAAKGWYFGYGRYGYWGQGTQVTVSS	high polyreactivity
QVQLVESGGGLVQAGGSLRLSCAASGRIFKTYAMGWYRQAPGKERELVAAITSGGSTYYADSVKGRFTISRDNAKNTVYLQMNSLKPEDTAVYYCNRVYRYVYSWAYNYWGQGTQVTVSS	high polyreactivity
QVQLVESGGGLVQAGGSLRLSCAASGSTFSSYAMGWYRQAPGKERELVARITSGGSTYYADSVKGRFTISRDNAKNTVYSQMNSLKPEDTAVYYCAARGYYYRSRVSQFKYDYWGQGTQVTVSS	high polyreactivity
QVQLVESGGGLVQAGGSLRLSCAASGSTFPYNTMGSYIQAPGKESELVATIRSRGDSTYFADSVKGRFTISRDNAKNTVYFQMNSLKPEDTAFYYCNADPRTLWWSRPYYSWGQGTQVTVSS	high polyreactivity
